According to PMC9606039, “Molecular analysis of a public cross-neutralizing antibody response to SARS-CoV-2” (Cell Reports, 2022):

Target: T1, receptor-binding domain (RBD) (residues 319-541) of the SARS-CoV-2 spike (S) protein (SARS-CoV-2, ancestral Wuhan-Hu-1 …, UniProt P0DTC2)
T1 construct: also called SARS-CoV-2 RBD; wild-type RBD
Test: BLI
Conditions: both partners purified

B1: 2-7 D54N Fab (Fab, V domains shown)
VH: QITLKESGPTLVKPTQTLTLTCTFSGFSLSTSGVGVGWIRQPPGKALEWLALIYWNDDKRYSPSLKSRLTITKDTSKNQVVLTMTNMDPVDTATYYCAHHKIERIFDYWGQGTLVTVSS
VL: QSALAQPASVSGSPGQSITISCTGTSSDVGAYNYVSWYQQHPGKAPKLMIYDVSKRPSGVSNRFSGSKSGNTASLTISGLQAEDEADYYCSSYTTSSTVFGGGTKLTVL
- fold weakening of KD against the wild-type Fab: ≥ 100 fold
